The data set in a line: protein stability index of a GFP-peptide fusion (GPS, HEK-293T) (PSI 1-6); higher = more stable.

This passage reports protein stability index results from the supplement of paper PMC10567573.
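Further: lentivirally expressed fusions sorted by FACS into six bins by GFP to DsRed ratio, PSI derived from sequencing read proportions per bin multiplied by bin number.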

B1: MGC27345 WT (peptide)
chain: KYMPHLCQDSSGEVSCQCQLHPPR
Regarding B1, the protein stability index (parent: IOH12124_9, c terminus: a fixed tail appended) was found to be 2.

B2: ZNF511 WT (peptide)
chain: AAPFRFVARPVRFPREHQFFEDGD
As to B2, the protein stability index (parent: IOH11805_6, c terminus: a fixed tail appended) stood at 2.1.

B3: TMEM40 WT (peptide)
chain: YGETDFHKQDGKAGLFSQEQYERN
Consider B3, for which, under “parent: IOH12831_5, c terminus: a fixed tail appended”, the protein stability index was determined as 4.04.

B4: ANKRD40 WT (peptide)
chain: VRIQNPSLRENDFIEIELDRQELT
With B4, the protein stability index (parent: IOH13159_45, c terminus: a fixed tail appended) came to 2.38.

B5: WSB1 WT (peptide)
chain: FSHDGLHVASLADDKMVRFWRIDE
B5: the protein stability index (parent: IOH12660_54, c terminus: a fixed tail appended) turned out to be 1.85.

B6: ZNF277 WT (peptide)
chain: ILREELQKQRLREILEQQQQERND
For the protein B6, the protein stability index (parent: IOH12086_23, c terminus: a fixed tail appended) amounted to 4.26.

B7: STEAP1 WT (peptide)
chain: WMLTRKQFGLLSFFFAVLHAIYSL
As for B7, the protein stability index (parent: IOH13052_27, c terminus: a fixed tail appended) is 1.71.

B8: SNX8 WT (peptide)
chain: RMVPALPPKRMLGADREFIEARRR
With B8, the protein stability index (parent: IOH13259_22, c terminus: a fixed tail appended) is 3.67.

B9: GOLPH3 WT (peptide)
chain: FAPLLDEQYDLATKRVRQLLDLDP
Regarding B9, for the setting “parent: IOH12568_43, c terminus: a fixed tail appended”, the protein stability index amounted to 2.12.

B10: SNX8 WT (peptide)
chain: LHQETQLIHVYLPLTSHILRAFVN
Consider B10, for which the protein stability index (parent: IOH13259_67, c terminus: a fixed tail appended) amounted to 2.4.

B11: FEM1B WT (peptide)
chain: TLAALLLNRSESDIRYLLGYVSQQ
For B11, the protein stability index (parent: IOH13134_4, c terminus: a fixed tail appended) is 2.44.

B12: NR2F2 WT (peptide)
chain: NIPFFPDLQITDQVALLRLTWSEL
Take B12: under “parent: IOH12813_39, c terminus: a fixed tail appended”, the protein stability index was 2.29.

B13: TRIM9 WT (peptide)
chain: PRNSCITCPQCHRSLILDDRGLRG
As for B13, the protein stability index (parent: IOH12704_21, c terminus: a fixed tail appended) amounted to 2.06.

B14: SERPINB5 WT (peptide)
chain: FPESETKECPFRVNKVCGAACSSK
For the protein B14, the protein stability index (parent: IOH12329_30, c terminus: a fixed tail appended) was found to be 2.39.

B15: ZNF511 WT (peptide)
chain: HLYPADFRFDKPKKSRSPASAEAP
B15: the protein stability index (parent: IOH11805_29, c terminus: a fixed tail appended) was 2.92.

B16: SPDEF WT (peptide)
chain: YPEDSSWAAKAPGASSREEPPEEP
Turning to B16, the protein stability index (parent: IOH12673_12, c terminus: a fixed tail appended) worked out at 4.25.

B17: ZNF511 WT (peptide)
chain: FDALDDYEHHYHTLHGNVCSFCKR
Consider B17, for which, where the note is “parent: IOH11805_16, c terminus: a fixed tail appended”, the protein stability index is 3.55.

B18: STK38L WT (peptide)
chain: FCIDSENRIGNSGVEEIKGHPFFE
Turning to B18, the protein stability index (parent: IOH11742_61, c terminus: a fixed tail appended) was found to be 2.18.

B19: ZNF511 WT (peptide)
chain: EPLPVERDPAAGAAPFRFVARPVR
B19: the protein stability index (parent: IOH11805_4, c terminus: a fixed tail appended) stood at 2.21.

B20: BEX1 WT (peptide)
chain: HSLRAVSTDPPHHDHHDEFCLMP
As to B20, the protein stability index (parent: IOH13216_18, c terminus: native) came out at 2.27.

B21: DULLARD WT (peptide)
chain: LVVFTASMEIYGSAVADKLDNSRS
As to B21, the protein stability index (parent: IOH12711_22, c terminus: a fixed tail appended) was found to be 2.76.

B22: SPDEF WT (peptide)
chain: FQELAGKELCAMSEEQFRQRSPLG
Consider B22, for which, where the note is “parent: IOH12673_30, c terminus: a fixed tail appended”, the protein stability index came to 2.63.

B23: KRT33B WT (peptide)
chain: PAVDLNQVLNETRNQYEALVETNR
Regarding B23, the protein stability index (parent: IOH13096_37, c terminus: a fixed tail appended) worked out at 3.33.

B24: TBX5 WT (peptide)
chain: YQNHKITQLKIENNPFAKGFRGSD
As to B24, the protein stability index (parent: IOH11603_37, c terminus: a fixed tail appended) was found to be 2.57.

B25: SNX8 WT (peptide)
chain: VVLKLFLSFSGSDVQNKLKESAQC
Take B25: the protein stability index (parent: IOH13259_29, c terminus: a fixed tail appended) was 2.49.

B26: TRIM9 WT (peptide)
chain: CVQCKMPVCYQCLEEGKHSSHEVK
In the case of B26, under “parent: IOH12704_41, c terminus: a fixed tail appended”, the protein stability index came out at 3.89.

B27: CSTF3 WT (peptide)
chain: YVPEKVKKAEKKLEENPYDLDAWS
For the protein B27, the protein stability index (parent: IOH12987_3, c terminus: a fixed tail appended) worked out at 2.14.

B28: BEX1 WT (peptide)
chain: EENMERIGEEVRQLMEKLREKQLS
With B28, the protein stability index (parent: IOH13216_14, c terminus: a fixed tail appended) stood at 4.44.

B29: CHMP4C WT (peptide)
chain: TNIRLPNVPSSSLPAQPNRKPGMS
With B29, the protein stability index (parent: IOH12461_31, c terminus: a fixed tail appended) was found to be 4.51.

B30: STK38L WT (peptide)
chain: FLPGGDMMTLLMKKDTLTEEETQF
Turning to B30, where the note is “parent: IOH11742_29, c terminus: a fixed tail appended”, the protein stability index stood at 2.21.

B31: SAT2 WT (peptide)
chain: IIKKVAEVALDKGCSQFRLAVLDW
In the case of B31, the protein stability index (parent: IOH12374_19, c terminus: a fixed tail appended) was 2.44.

B32: ZNF511 WT (peptide)
chain: YEHHYHTLHGNVCSFCKRAFPSGH
As for B32, where the note is “parent: IOH11805_17, c terminus: a fixed tail appended”, the protein stability index turned out to be 2.07.

B33: SAT2 WT (peptide)
chain: GYGIYYFIYSTWKGRTIYLEDIYV
As to B33, under “parent: IOH12374_13, c terminus: a fixed tail appended”, the protein stability index was 3.

B34: NR2F2 WT (peptide)
chain: VAHVESLQEKSQCALEEYVRSQYP
For the protein B34, the protein stability index (parent: IOH12813_56, c terminus: a fixed tail appended) is 3.61.

B35: WSB1 WT (peptide)
chain: DLKDDGNMMKVLRGHQNWVYSCAF
As to B35, under “parent: IOH12660_34, c terminus: a fixed tail appended”, the protein stability index was 2.

B36: ANKRD40 WT (peptide)
chain: YQELLRVCCCELGVNPDQVEKIRK
Turning to B36, the protein stability index (parent: IOH13159_49, c terminus: a fixed tail appended) stood at 2.07.

B37: ANKRD40 WT (peptide)
chain: VCCCELGVNPDQVEKIRKLPNTLL
Regarding B37, the protein stability index (parent: IOH13159_50, c terminus: a fixed tail appended) turned out to be 1.91.

B38: ANKRD9 WT (peptide)
chain: LLEDMRASEAFHWDERGRAAAYSP
With B38, the protein stability index (parent: IOH11833_9, c terminus: a fixed tail appended) was 1.79.

B39: STEAP1 WT (peptide)
chain: LWKMKPRRNLEEDDYLHKDTGETS
For B39, the protein stability index (parent: IOH13052_3, c terminus: a fixed tail appended) turned out to be 4.46.

B40: TBX5 WT (peptide)
chain: FHEVGTEMIITKAGRRMFPSYKVK
B40: for the setting “parent: IOH11603_12, c terminus: a fixed tail appended”, the protein stability index was 2.15.

B41: ZNF193 WT (peptide)
chain: QKRYHCKECGKVFSQSAGLIQHQR
For B41, the protein stability index (parent: IOH12838_52, c terminus: a fixed tail appended) is 3.14.

B42: SMAD6 WT (peptide)
chain: SGLVRRLWRSRVVPDREEGGSGGG
B42: the protein stability index (parent: IOH13078_2, c terminus: a fixed tail appended) was 4.12.

B43: ZNF193 WT (peptide)
chain: QCIECGKSFNRHCNLIRHQKIHTV
B43: under “parent: IOH12838_62, c terminus: a fixed tail appended”, the protein stability index amounted to 3.73.

B44: KRT33B WT (peptide)
chain: YQSYFKTIEELQQKILCSKSENAR
Consider B44, for which the protein stability index (parent: IOH13096_18, c terminus: a fixed tail appended) was 1.93.

B45: STK38L WT (peptide)
chain: NWKETLVFPPEVPISEKAKDLILR
For B45, the protein stability index (parent: IOH11742_57, c terminus: a fixed tail appended) turned out to be 3.08.

B46: STK38L WT (peptide)
chain: RQLAYSTVGTPDYIAPEVFMQTGY
For the protein B46, the protein stability index (parent: IOH11742_47, c terminus: a fixed tail appended) was 2.48.

B47: ANKRD40 WT (peptide)
chain: SLRENDFIEIELDRQELTYQELLR
Consider B47, for which the protein stability index (parent: IOH13159_46, c terminus: a fixed tail appended) was 2.87.

B48: SAT2 WT (peptide)
chain: LTEAEGWHFFCFQGEATRKLAGK
Regarding B48, the protein stability index (parent: IOH12374_27, c terminus: native) worked out at 2.13.

B49: CD207 WT (peptide)
chain: MTVEKEAPDAHFTVDKQNISLWPR
With B49, the protein stability index (parent: IOH12930_1, c terminus: a fixed tail appended) was 3.23.

B50: RPS21 WT (peptide)
chain: AEVSWEPGRREGCDICAGKAGCPI
Consider B50, for which the protein stability index (parent: IOH11779_7, c terminus: a fixed tail appended) came to 3.06.

B51: WDFY2 WT (peptide)
chain: FWNFKQMWDSKKIGLRQHHCRKCG
For B51, the protein stability index (parent: IOH13317_50, c terminus: a fixed tail appended) worked out at 2.

B52: ANKRD9 WT (peptide)
chain: VGAAGSARQELLGDRPRWQRLLGE
Consider B52, for which, where the note is “parent: IOH11833_41, c terminus: a fixed tail appended”, the protein stability index was 3.32.

B53: CHMP4C WT (peptide)
chain: SSKSRAAPSPQEALVRLRETEEML
For B53, the protein stability index (parent: IOH12461_3, c terminus: a fixed tail appended) came out at 1.94.
